According to US10941182 (Amgen, dated 2021):
Starred links: 1 amine or outer side, 2 acyl side, 3 side chain; linkers in the order of their positions; H or OH if unused. Non-standard residues stand in square brackets, D forms with d. *: point of attachment. AC4Abu = α-carboxy-4-aminobutyric acid, O=C(C(CCN[*:1])C(=O)[*:3])[*:2]; Oic = O=C(O)[C@@H]1C[C@@H]2CCCC[C@@H]2N1; Phe(4-Cl) = N[C@@H](Cc1ccc(Cl)cc1)C(=O)O; dPhe(4-Cl) = N[C@H](Cc1ccc(Cl)cc1)C(=O)O; γGlu = O=C(O)[C@H](CCC(=O)[*:2])N[*:1]; NMeR = CN[C@@H](CCCNC(=N)N)C(=O)O; Tridecanoyl = CCCCCCCCCCCCC(=O)*; hArg = N=C(N)NCCCC[C@H](N)C(=O)O; Cha = N[C@@H](CC1CCCCC1)C(=O)O; αMeL = CC(C)C[C@](C)(N)C(=O)O; β3hN = NC(=O)C[C@H](N)CC(=O)O; β3hL = CC(C)C[C@H](N)CC(=O)O; Nle = CCCC[C@H](N)C(=O)O; AEEA = NCCOCCOCC(=O)O; Aib = CC(C)(N)C(=O)O

T1: rat APJ receptor (rat, UniProt Q9JHG3 1-377)
T1 sequence (looked up): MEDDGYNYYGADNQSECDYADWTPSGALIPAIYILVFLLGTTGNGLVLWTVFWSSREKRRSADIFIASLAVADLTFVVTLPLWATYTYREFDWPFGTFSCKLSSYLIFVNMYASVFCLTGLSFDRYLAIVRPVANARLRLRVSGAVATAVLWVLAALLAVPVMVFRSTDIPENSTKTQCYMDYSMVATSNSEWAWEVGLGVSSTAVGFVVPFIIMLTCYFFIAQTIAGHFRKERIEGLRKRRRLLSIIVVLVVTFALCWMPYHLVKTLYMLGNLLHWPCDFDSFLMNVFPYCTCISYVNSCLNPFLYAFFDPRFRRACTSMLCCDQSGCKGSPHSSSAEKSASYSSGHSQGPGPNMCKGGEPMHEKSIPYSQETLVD

T2: human APJ receptor (human, UniProt P35414 1-380)
T2 sequence (looked up): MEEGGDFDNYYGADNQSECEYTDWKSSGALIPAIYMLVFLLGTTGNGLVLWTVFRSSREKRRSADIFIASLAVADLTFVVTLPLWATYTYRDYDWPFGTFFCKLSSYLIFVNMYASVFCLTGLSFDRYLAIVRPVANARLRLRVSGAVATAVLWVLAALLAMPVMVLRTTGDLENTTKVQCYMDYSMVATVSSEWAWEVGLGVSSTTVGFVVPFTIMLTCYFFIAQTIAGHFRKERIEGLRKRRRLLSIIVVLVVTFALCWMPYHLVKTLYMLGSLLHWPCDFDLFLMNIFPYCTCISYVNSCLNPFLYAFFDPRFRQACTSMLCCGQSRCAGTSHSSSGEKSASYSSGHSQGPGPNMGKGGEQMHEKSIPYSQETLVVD

B1: SEQ ID NO: 300 (peptide)
peptide: Tridecanoyl-[γGlu][AEEA][AEEA][β3hL][hArg]P[NMeR][Cha]SHKG[Oic][Nle]P[dPhe(4-Cl)]-OH
SMILES: CCCCCCCCCCCCC(=O)N[C@@H](CCC(=O)NCCOCCOCC(=O)NCCOCCOCC(=O)N[C@H](CC(=O)N[C@@H](CCCCNC(=N)N)C(=O)N1CCC[C@H]1C(=O)N(C)[C@@H](CCCNC(=N)N)C(=O)N[C@@H](CC1CCCCC1)C(=O)N[C@@H](CO)C(=O)N[C@@H](Cc1c[nH]cn1)C(=O)N[C@@H](CCCCN)C(=O)NCC(=O)N1[C@H](C(=O)N[C@@H](CCCC)C(=O)N2CCC[C@H]2C(=O)N[C@H](Cc2ccc(Cl)cc2)C(=O)O)C[C@@H]2CCCC[C@@H]21)CC(C)C)C(=O)O
B2: SEQ ID NO: 398 (peptide)
peptide: XXXXXXXQRPRLSHKGPXPF
modifications: {TDA}[AC4Abu][Aeea][Aeea][Aeea][Aeea][Aeea][Aeea]QRP[NMeArg]LSHKGP[Nle]P[4-Cl-F]{COOH}
B3: SEQ ID NO: 533 (peptide)
peptide: Tridecanoyl-[AC4Abu][AC4Abu][dQ]RP[NMeR][Cha]SHKG[Oic][Nle][Aib][Phe(4-Cl)]-OH
SMILES: CCCCCCCCCCCCC(=O)NCCC(C(=O)O)C(=O)NCCC(C(=O)O)C(=O)N[C@H](CCC(N)=O)C(=O)N[C@@H](CCCNC(=N)N)C(=O)N1CCC[C@H]1C(=O)N(C)[C@@H](CCCNC(=N)N)C(=O)N[C@@H](CC1CCCCC1)C(=O)N[C@@H](CO)C(=O)N[C@@H](Cc1c[nH]cn1)C(=O)N[C@@H](CCCCN)C(=O)NCC(=O)N1[C@H](C(=O)N[C@@H](CCCC)C(=O)NC(C)(C)C(=O)N[C@@H](Cc2ccc(Cl)cc2)C(=O)O)C[C@@H]2CCCC[C@@H]21
B4: SEQ ID NO: 535 (peptide)
peptide: Tridecanoyl-[AC4Abu][AC4Abu][AEEA][dQ]RP[NMeR][Cha]SHKG[Oic][Nle][Aib][Phe(4-Cl)]-OH
SMILES: CCCCCCCCCCCCC(=O)NCCC(C(=O)O)C(=O)NCCC(C(=O)O)C(=O)NCCOCCOCC(=O)N[C@H](CCC(N)=O)C(=O)N[C@@H](CCCNC(=N)N)C(=O)N1CCC[C@H]1C(=O)N(C)[C@@H](CCCNC(=N)N)C(=O)N[C@@H](CC1CCCCC1)C(=O)N[C@@H](CO)C(=O)N[C@@H](Cc1c[nH]cn1)C(=O)N[C@@H](CCCCN)C(=O)NCC(=O)N1[C@H](C(=O)N[C@@H](CCCC)C(=O)NC(C)(C)C(=O)N[C@@H](Cc2ccc(Cl)cc2)C(=O)O)C[C@@H]2CCCC[C@@H]21
B5: SEQ ID NO: 299 (peptide)
peptide: Tridecanoyl-[γGlu][AEEA][AEEA][β3hN][hArg]P[NMeR][Cha]SHKG[Oic][Nle]P[dPhe(4-Cl)]-OH
SMILES: CCCCCCCCCCCCC(=O)N[C@@H](CCC(=O)NCCOCCOCC(=O)NCCOCCOCC(=O)N[C@@H](CC(N)=O)CC(=O)N[C@@H](CCCCNC(=N)N)C(=O)N1CCC[C@H]1C(=O)N(C)[C@@H](CCCNC(=N)N)C(=O)N[C@@H](CC1CCCCC1)C(=O)N[C@@H](CO)C(=O)N[C@@H](Cc1c[nH]cn1)C(=O)N[C@@H](CCCCN)C(=O)NCC(=O)N1[C@H](C(=O)N[C@@H](CCCC)C(=O)N2CCC[C@H]2C(=O)N[C@H](Cc2ccc(Cl)cc2)C(=O)O)C[C@@H]2CCCC[C@@H]21)C(=O)O
B6: SEQ ID NO: 534 (peptide)
peptide: Tridecanoyl-[AC4Abu][AC4Abu][AEEA][AEEA][dQ]RP[NMeR][Cha]SHKG[Oic][Nle][Aib][Phe(4-Cl)]-OH
SMILES: CCCCCCCCCCCCC(=O)NCCC(C(=O)O)C(=O)NCCC(C(=O)O)C(=O)NCCOCCOCC(=O)NCCOCCOCC(=O)N[C@H](CCC(N)=O)C(=O)N[C@@H](CCCNC(=N)N)C(=O)N1CCC[C@H]1C(=O)N(C)[C@@H](CCCNC(=N)N)C(=O)N[C@@H](CC1CCCCC1)C(=O)N[C@@H](CO)C(=O)N[C@@H](Cc1c[nH]cn1)C(=O)N[C@@H](CCCCN)C(=O)NCC(=O)N1[C@H](C(=O)N[C@@H](CCCC)C(=O)NC(C)(C)C(=O)N[C@@H](Cc2ccc(Cl)cc2)C(=O)O)C[C@@H]2CCCC[C@@H]21
B7: SEQ ID NO: 375 (peptide)
peptide: Tridecanoyl-[γGlu][AEEA][AEEA][αMeL]RP[NMeR][αMeL]SHKG[Oic][Nle]P[Phe(4-Cl)]-OH
SMILES: CCCCCCCCCCCCC(=O)N[C@@H](CCC(=O)NCCOCCOCC(=O)NCCOCCOCC(=O)N[C@@](C)(CC(C)C)C(=O)N[C@@H](CCCNC(=N)N)C(=O)N1CCC[C@H]1C(=O)N(C)[C@@H](CCCNC(=N)N)C(=O)N[C@@](C)(CC(C)C)C(=O)N[C@@H](CO)C(=O)N[C@@H](Cc1c[nH]cn1)C(=O)N[C@@H](CCCCN)C(=O)NCC(=O)N1[C@H](C(=O)N[C@@H](CCCC)C(=O)N2CCC[C@H]2C(=O)N[C@@H](Cc2ccc(Cl)cc2)C(=O)O)C[C@@H]2CCCC[C@@H]21)C(=O)O
B8: SEQ ID NO: 536 (peptide)
peptide: Tridecanoyl-[AC4Abu][AEEA][AC4Abu][dQ]RP[NMeR][Cha]SHKG[Oic][Nle][Aib][Phe(4-Cl)]-OH
SMILES: CCCCCCCCCCCCC(=O)NCCC(C(=O)O)C(=O)NCCOCCOCC(=O)NCCC(C(=O)O)C(=O)N[C@H](CCC(N)=O)C(=O)N[C@@H](CCCNC(=N)N)C(=O)N1CCC[C@H]1C(=O)N(C)[C@@H](CCCNC(=N)N)C(=O)N[C@@H](CC1CCCCC1)C(=O)N[C@@H](CO)C(=O)N[C@@H](Cc1c[nH]cn1)C(=O)N[C@@H](CCCCN)C(=O)NCC(=O)N1[C@H](C(=O)N[C@@H](CCCC)C(=O)NC(C)(C)C(=O)N[C@@H](Cc2ccc(Cl)cc2)C(=O)O)C[C@@H]2CCCC[C@@H]21
B9: SEQ ID NO: 420 (peptide)
peptide: Tridecanoyl-[γGlu][AEEA][AEEA][β3hN]RP[NMeR]LSHKGP[Nle]P[Phe(4-Cl)]-OH
SMILES: CCCCCCCCCCCCC(=O)N[C@@H](CCC(=O)NCCOCCOCC(=O)NCCOCCOCC(=O)N[C@@H](CC(N)=O)CC(=O)N[C@@H](CCCNC(=N)N)C(=O)N1CCC[C@H]1C(=O)N(C)[C@@H](CCCNC(=N)N)C(=O)N[C@@H](CC(C)C)C(=O)N[C@@H](CO)C(=O)N[C@@H](Cc1c[nH]cn1)C(=O)N[C@@H](CCCCN)C(=O)NCC(=O)N1CCC[C@H]1C(=O)N[C@@H](CCCC)C(=O)N1CCC[C@H]1C(=O)N[C@@H](Cc1ccc(Cl)cc1)C(=O)O)C(=O)O

Molecular target: T1, rat APJ receptor
Test: cell-based or functional assay

Row | EC50 Rat APJ Receptor [nM] | Binder
1 | 36.4 | B1
2 | 0.116 | B2
3 | 0.0793 | XXXQRPRLSHKGPXPF ({TDA}[AC4Abu][AC4Abu][Aeea]QRP[NMeArg]LSHKGP[Nle]P[4-Cl-F]{COOH}) [SEQ ID NO: 462]
4 | 0.865 | XXXQRPRLSHKGPXPF ({Sebacicacid}[AC4Abu][Aeea][Aeea]QRP[NMeArg]LSHKGP[Nle]P[4-Cl-F]{COOH}) [SEQ ID NO: 509]
5 | 3.88 | B3
6 | 5.15 | B4
7 | 14.6 | B5
8 | 3.75 | B6
9 | 0.288 | B7
10 | 0.104 | XXXXQRPRLSHKGPXPF ({TDA}[AC4Abu][AC4Abu][Aeea][Aeea]QRP[NMeArg]LSHKGP[Nle]P[4-Cl-F]{COOH}) [SEQ ID NO: 399]
11 | 0.285 | XXXLRPRLSHKGPXPF ({TDA}[AC4Abu][Aeea][Aeea][BhLeu]RP[NMeArg]LSHKGP[Nle]P[4-Cl-F]{COOH}) [SEQ ID NO: 421]
12 | 2.03 | B8
13 | 0.0838 | B9

Molecular target: T2, human APJ receptor
Test: cell-based or functional assay

Row | EC50 Human APJ Receptor [nM] | Binder
14 | 41.5 | B1
15 | 0.0573 | B2
16 | 0.0154 | XXXQRPRLSHKGPXPF ({TDA}[AC4Abu][AC4Abu][Aeea]QRP[NMeArg]LSHKGP[Nle]P[4-Cl-F]{COOH}) [SEQ ID NO: 462]
17 | 0.179 | XXXQRPRLSHKGPXPF ({Sebacicacid}[AC4Abu][Aeea][Aeea]QRP[NMeArg]LSHKGP[Nle]P[4-Cl-F]{COOH}) [SEQ ID NO: 509]
18 | 0.629 | B3
19 | 0.798 | B4
20 | 24.4 | B5
21 | 0.683 | B6
22 | 0.155 | B7
23 | 0.0335 | XXXXQRPRLSHKGPXPF ({TDA}[AC4Abu][AC4Abu][Aeea][Aeea]QRP[NMeArg]LSHKGP[Nle]P[4-Cl-F]{COOH}) [SEQ ID NO: 399]
24 | 0.0934 | XXXLRPRLSHKGPXPF ({TDA}[AC4Abu][Aeea][Aeea][BhLeu]RP[NMeArg]LSHKGP[Nle]P[4-Cl-F]{COOH}) [SEQ ID NO: 421]
25 | 0.592 | B8
26 | 0.0525 | B9
